Reference: the Immune Epitope Database (IEDB)
pKd: −log10 of the molar value.

Columns and labels:
[1] = biological target: HLA-A*02:01; assay: IEDB peptide-MHC binding, purified MHC/competitive/fluorescence; filed as Kd, often an IC50 or EC50 that approximates it; ≥ and ≤ were set here for values at or beyond the usual limits of such assays
[2] = biological target: HLA-A*69:01; assay: as above; settings: source organism: Vaccinia virus Copenhagen
[3] = biological target: HLA-A*02:06; assay: as above
[4] = biological target: HLA-B*08:02; assay: IEDB peptide-MHC binding, purified MHC/direct/fluorescence; filed as Kd, often an IC50 or EC50 that approximates it; ≥ and ≤ were set here for values at or beyond the usual limits of such assays
[5] = biological target: HLA-B*15:01; assay: as above
[6] = biological target: HLA-A*01:01; assay: as above
[7] = biological target: HLA-B*57:01; assay: as above
[8] = biological target: HLA-B*58:01; assay: as above
[9] = biological target: HLA-B*27:05; assay: as above
[10] = biological target: HLA-B*46:01; assay: as above
[11] = biological target: HLA-A*03:01; assay: as above
[12] = biological target: HLA-B*48:01; assay: as above
[13] = biological target: HLA-A*11:01; assay: as above
[14] = biological target: HLA-B*15:17; assay: as above
[15] = biological target: HLA-B*40:01; assay: as above
[16] = biological target: HLA-A*26:01; assay: as above
[17] = biological target: HLA-A*31:01; assay: as above
[18] = biological target: HLA-A*69:01; assay: as above
[19] = biological target: HLA-B*39:01; assay: as above
[20] = biological target: HLA-B*07:02; assay: IEDB peptide-MHC binding, purified MHC/competitive/fluorescence; filed as Kd, often an IC50 or EC50 that approximates it; ≥ and ≤ were set here for values at or beyond the usual limits of such assays
[21] = biological target: HLA-B*15:01; assay: as above; settings: source organism: Yersinia pestis Nepal516
[22] = biological target: HLA-A*01:01; assay: as above; settings: source organism: Yersinia pestis Nepal516
[23] = biological target: HLA-A*03:01; assay: as above; settings: source organism: Yersinia pestis Nepal516
[24] = biological target: HLA-A*02:12; assay: IEDB peptide-MHC binding, purified MHC/direct/fluorescence; filed as Kd, often an IC50 or EC50 that approximates it; ≥ and ≤ were set here for values at or beyond the usual limits of such assays
[25] = biological target: HLA-B*18:01; assay: as above
[26] = biological target: HLA-A*02:19; assay: as above
[27] = biological target: HLA-B*27:03; assay: as above
[28] = biological target: HLA-A*02:01; assay: as above; settings: source organism: Yersinia enterocolitica subsp. enterocolitica 8081
[29] = biological target: HLA-A*02:16; assay: as above
[30] = biological target: HLA-A*02:11; assay: as above; settings: source organism: Yersinia enterocolitica subsp. enterocolitica 8081
[31] = biological target: HLA-A*02:03; assay: as above; settings: source organism: Yersinia enterocolitica subsp. enterocolitica 8081
[32] = biological target: HLA-A*24:03; assay: as above
[33] = biological target: HLA-A*68:02; assay: as above; settings: source organism: Yersinia enterocolitica subsp. enterocolitica 8081
[34] = biological target: HLA-B*51:01; assay: IEDB peptide-MHC binding, purified MHC/competitive/fluorescence; filed as Kd, often an IC50 or EC50 that approximates it; ≥ and ≤ were set here for values at or beyond the usual limits of such assays; settings: source organism: Escherichia coli 536
[35] = biological target: HLA-B*08:01; assay: as above; settings: source organism: Escherichia coli 536
[36] = biological target: HLA-B*51:01; assay: IEDB peptide-MHC binding, purified MHC/direct/fluorescence; filed as Kd, often an IC50 or EC50 that approximates it; ≥ and ≤ were set here for values at or beyond the usual limits of such assays; settings: source organism: Encephalitozoon cuniculi GB-M1
[37] = source organism: Vaccinia virus Copenhagen
[38] = source organism: Burkholderia mallei NCTC 10229
[39] = source organism: Burkholderia mallei ATCC 23344
[40] = source organism: Burkholderia mallei
[41] = source organism: Mycobacterium tuberculosis
[42] = source organism: Yersinia enterocolitica subsp. enterocolitica 8081
[43] = source organism: Encephalitozoon cuniculi GB-M1

YKDANISMY
pKd [1, 37]: 6.95
pKd [2]: 5.98
pKd [3, 37]: 6.97
pKd ([4]; source organism: Variola virus): ≤ 4.70
pKd ([5]; source organism: Cowpox virus): ≤ 4.70
pKd ([6]; source organism: Cowpox virus): ≤ 4.70
pKd ([7]; source organism: Cowpox virus): ≤ 4.70
pKd ([8]; source organism: Cowpox virus): ≤ 4.70
pKd ([9]; source organism: Cowpox virus): ≤ 4.70
pKd ([10]; source organism: Cowpox virus): ≤ 4.70
pKd ([11]; source organism: Cowpox virus): ≤ 4.70
pKd ([12]; source organism: Cowpox virus): ≤ 4.70
pKd ([13]; source organism: Cowpox virus): ≤ 4.70
pKd ([14]; source organism: Cowpox virus): ≤ 4.70
pKd ([15]; source organism: Cowpox virus): ≤ 4.70
pKd ([16]; source organism: Variola virus): ≤ 4.70
pKd ([17]; source organism: Cowpox virus): ≤ 4.70

IYDFYNAEY
pKd [1, 38]: 6.86
pKd [3, 38]: 7.27
pKd [4, 39]: ≤ 4.70
pKd [5, 40]: ≤ 4.70
pKd [6, 40]: 5.75
pKd [7, 40]: ≤ 4.70
pKd [8, 40]: ≤ 4.70
pKd [18, 40]: ≤ 4.70
pKd [9, 40]: ≤ 4.70
pKd [19, 39]: ≤ 4.70
pKd [11, 40]: ≤ 4.70
pKd [12, 40]: ≤ 4.70
pKd [13, 40]: ≤ 4.70
pKd [14, 40]: 5.29
pKd [15, 40]: ≤ 4.70
pKd [16, 39]: 7.04
pKd [17, 40]: ≤ 4.70

LPSWLLAPV
pKd ([20]; source organism: Salmonella enterica subsp. enterica serovar Typhi): 7.18

NTLGITHLY
pKd [21]: 5.52
pKd [22]: 7.35
pKd [23]: ≤ 4.70

SIYYTLVRM
pKd [24, 41]: ≤ 4.70
pKd [5, 41]: ≤ 4.70
pKd [25, 41]: ≤ 4.70
pKd [7, 41]: ≤ 4.70
pKd [10, 41]: ≤ 4.70
pKd [19, 41]: ≤ 4.70
pKd [26, 41]: ≤ 4.70
pKd [27, 41]: ≤ 4.70
pKd [14, 41]: 6.59
pKd [16, 41]: ≤ 4.70

KSRQGDTKV
pKd [28]: ≤ 4.70
pKd [24, 42]: ≤ 4.70
pKd [29, 42]: ≤ 4.70
pKd [5, 42]: ≤ 4.70
pKd [30]: ≤ 4.70
pKd [25, 42]: ≤ 4.70
pKd [7, 42]: ≤ 4.70
pKd [18, 42]: ≤ 4.70
pKd [10, 42]: ≤ 4.70
pKd [19, 42]: ≤ 4.70
pKd [26, 42]: ≤ 4.70
pKd [11, 42]: ≤ 4.70
pKd [27, 42]: ≤ 4.70
pKd [31]: ≤ 4.70
pKd [32, 42]: ≤ 4.70
pKd [14, 42]: 6.55
pKd [33]: ≤ 4.70
pKd [16, 42]: ≤ 4.70

HPYKIPATV
pKd ([20]; source organism: Escherichia coli 536): 6.71
pKd [34]: 6.51
pKd [35]: 6.40

HPYVFCALL
pKd [24, 43]: ≤ 4.70
pKd [29, 43]: ≤ 4.70
pKd [5, 43]: ≤ 4.70
pKd [25, 43]: ≤ 4.70
pKd [7, 43]: ≤ 4.70
pKd [10, 43]: ≤ 4.70
pKd [26, 43]: ≤ 4.70
pKd [11, 43]: ≤ 4.70
pKd [27, 43]: ≤ 4.70
pKd [36]: 5.53
pKd [32, 43]: ≤ 4.70
pKd [16, 43]: ≤ 4.70
